According to publication PMC3176823, “A Membrane-Bound Vertebrate Globin” (PLoS ONE, 2011):

Biological target: the molecule itself
Assay: SDS-PAGE + MALDI-TOF; purified GbXΔNC heat-denatured in SDS sample buffer (2.5% β-mercaptoethanol), 15% SDS-PAGE; also 10–15% gradient gels (PhastSystem) in the absence and presence of DTT; bands identified by MALDI-TOF after tryptic digest

B1: N- and C-terminally truncated Danio rerio globin X (GbXΔNC) (domain or fragment, Danio rerio (zebrafish), UniProt A0AC58HMV5 25-184, looked up)
chain: PAGLTANHIRLIKESWRLIQEDIAKVGIIMFVRLFETHPECKDVFFLFRDVEDLERLRTSRELRAHGLRVMSFIEKSVARLDQLERLETLALELGKSHYRYNAPPKYYGYVGAEFICAVRPILKDRWTPELEEAWKTLFQYVTSIMREGFLEEERNKRSN
notes: globin X (GbX) of zebrafish (Danio rerio), amino acids 25 to 184 (the globin core), cloned into pET3a; Heme protein; No tag is mentioned for the pET3a construct; also called recombinant truncated GbX; source: E. coli BL21(DE3)pLysS, purified (ammonium sulfate precipitation, ion-exchange, size exclusion chromatography)
stoichiometry N: 2
